Experimental data reported in patent US20120115870A1, “CONTROL OF INTRAOCULAR PRESSURE USING ALK5 MODULATION AGENTS” (ALCON RESEARCH, LTD., priority 2005, published 2012).

Assays:
ALK5 = target: T1, ALK5 (Homo sapiens, UniProt P36897); details: Brit J Pharmacol. 2005; 145:166-177; read-out: IC50, inhibition of phosphorylation of ALK5; cited from earlier work
T1 sequence (P36897 34-503): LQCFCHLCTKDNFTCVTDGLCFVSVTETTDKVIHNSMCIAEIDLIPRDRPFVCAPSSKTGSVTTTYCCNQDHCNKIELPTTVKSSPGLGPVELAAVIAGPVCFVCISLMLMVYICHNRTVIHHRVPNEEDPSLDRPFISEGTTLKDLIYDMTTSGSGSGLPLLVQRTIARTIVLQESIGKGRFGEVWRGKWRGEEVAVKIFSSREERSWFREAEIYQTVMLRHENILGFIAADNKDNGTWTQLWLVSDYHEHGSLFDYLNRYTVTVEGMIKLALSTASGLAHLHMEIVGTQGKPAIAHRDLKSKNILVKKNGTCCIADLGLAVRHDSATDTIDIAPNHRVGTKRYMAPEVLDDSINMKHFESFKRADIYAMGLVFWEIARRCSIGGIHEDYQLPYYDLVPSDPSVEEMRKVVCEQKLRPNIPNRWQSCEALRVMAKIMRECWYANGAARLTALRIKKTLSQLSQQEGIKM

TGF-β Type II receptors = TGF-β Type II receptors (Homo sapiens, UniProt P37173); details: Brit J Pharmacol. 2005; 145:166-177; read-out: IC50, phosphorylation of TGF-β Type II receptors; cited from earlier work
Chain of TGF-β Type II receptors (P37173 23-567): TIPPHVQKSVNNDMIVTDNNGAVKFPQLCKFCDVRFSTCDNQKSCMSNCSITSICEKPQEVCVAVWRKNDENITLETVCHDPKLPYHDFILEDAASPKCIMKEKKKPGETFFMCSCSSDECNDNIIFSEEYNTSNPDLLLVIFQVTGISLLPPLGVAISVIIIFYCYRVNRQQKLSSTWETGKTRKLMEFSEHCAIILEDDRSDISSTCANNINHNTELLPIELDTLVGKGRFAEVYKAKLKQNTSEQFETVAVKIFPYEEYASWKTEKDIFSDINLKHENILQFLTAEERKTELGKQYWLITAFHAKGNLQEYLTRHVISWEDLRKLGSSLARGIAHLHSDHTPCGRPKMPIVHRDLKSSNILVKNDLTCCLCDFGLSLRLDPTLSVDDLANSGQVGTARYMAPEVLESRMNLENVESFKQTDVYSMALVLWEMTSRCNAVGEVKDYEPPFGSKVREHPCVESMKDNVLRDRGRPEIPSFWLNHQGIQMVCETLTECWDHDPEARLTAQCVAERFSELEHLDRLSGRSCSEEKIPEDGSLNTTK

p38 MAPK = p38 MAPK (Homo sapiens, UniProt Q16539); details: Brit J Pharmacol. 2005; 145:166-177; read-out: IC50, phosphorylation of p38 MAPK; cited from earlier work
Chain of p38 MAPK (Q16539 whole entry): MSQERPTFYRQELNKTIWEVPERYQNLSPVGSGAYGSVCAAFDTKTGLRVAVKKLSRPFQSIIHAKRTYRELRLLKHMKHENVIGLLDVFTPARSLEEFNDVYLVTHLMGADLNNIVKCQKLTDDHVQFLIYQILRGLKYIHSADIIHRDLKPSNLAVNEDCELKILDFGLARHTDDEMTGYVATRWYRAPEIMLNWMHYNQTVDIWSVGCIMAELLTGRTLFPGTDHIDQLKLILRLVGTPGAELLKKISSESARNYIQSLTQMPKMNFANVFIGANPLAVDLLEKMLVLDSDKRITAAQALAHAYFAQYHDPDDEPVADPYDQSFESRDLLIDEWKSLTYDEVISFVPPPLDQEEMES

[1] = tested on: GTM-3 transformed human TM cells; assay: TGF-β2-mediated fibronectin and PAI-1 in human TM cell culture supernatants, ELISA (FIG. 3); assay type: cell-based; details: human TM cell cultures, 24 h
Method: (§1) Generation and characterization of the GTM-3 transformed cell line has been previously described (Pang et al., Curr Eye Res., 1994; Vol. 13:51-63). Briefly, maintenance growth medium consisted of Dulbecco's modified Eagle's medium with Glutamax I (Gibco/BRL, Grand Island, N.Y.) supplemented with 10% fetal bovine serum (Hyclone, Logan, Utah) and 50 μg/mL gentamicin (Gibco/BRL). For assay, cultures were trypsinized and seeded into 24-well plates (Corning Costar, Acton, Mass.) and allowed to grow until monolayers reached approximately 90% confluence. Culture medium was then replaced with 0.25 mL serum- and antibiotic-free medium containing the appropriate test compound(s). Cells were incubated 24 h, at 5% CO2 and 37° C. Aliquots of culture supernatants were then assayed for fibronectin and/or PAI-1 content by ELISA.

[2] = tested on: TGF-β2-treated perfused human anterior segment model; assay: Perfusate fibronectin in TGF-β2-treated perfused human anterior segment model (FIG. 2); details: human anterior segments treated with TGF-β2 and compound vs TGF-β2 only
Method: Human ocular perfusion organ culture was performed as described in available literature. [Tschumper et al., Curr Eye Res., 1990; Vol. 9:363-369; Clark et al., Invest Ophthalmol Vis Sci., 1995; Vol. 36:478-489; Pang et al., J Glaucoma, 2000; Vol. 9:468-479; Pang et al., Invest Ophthalmol Vis Sci., 2003; Vol. 44:3502-3510]. Briefly, anterior segments were dissected and mounted into custom Plexiglas culture chambers, then perfused with serum-free Dulbecco's modified Eagle's medium. IOP was monitored every 5 seconds and averaged each hour. Perfused tissue was allowed to equilibrate at 37° C. and 5% CO2 until a stable baseline IOP was achieved, typically 2-4 days; tissues with unstable IOP were discarded. Stable tissues were then further perfused with media containing the test compound(s) as indicated and changes in IOP were recorded. Eluate samples were collected daily for ELISA analysis of fibronectin and PAI-1 content. Tissues were fixed and evaluated for viability/morphology by light and electron microscopy at termination of each study. Data from unacceptable tissues were excluded from results. Criteria for “unacceptable” tissues included findings such as excess debris in the TM region, denudation of TM beams, loss of TM and/or Schlemm's canal cells, and breaks or collapse of Schlemm's canal. […]

[3] = tested on: GTM-3 transformed human TM cells; assay: Pro-collagen type I C-peptide (PIP) in human TM cell cultures, ELISA (FIG. 4); assay type: cell-based; details: 24 h
Method: For this experiment, cultured transformed GTM-3 cells (Pang et al., Curr Eye Res., 1994; Vol. 13:51-63) were grown in a growth medium consisting of Dulbecco's modified Eagle's medium with Glutamax I (Gibco/Invitrogen, Grand Island, N.Y.) supplemented with 10% fetal bovine serum (Hyclone, Logan, Utah) and 50 μg/mL gentamicin (Gibco/Invitrogen). For assay, cultures were enzymatically-dissociated (TrypLE Express; Gibco/Invitrogen) then seeded into 24-well plates (Corning Costar, Acton, Mass.) and allowed to grow until monolayers reached approximately 90-95% confluence. Culture medium was then replaced with 0.25 mL serum- and antibiotic-free medium containing the appropriate test compound(s). Cells were incubated 24 h, at 5% CO2 and 37° C. Aliquots of culture supernatants were then assayed using an ELISA kit for procollagen Type I C-peptide (TaKaRa Bio, Shiga, Japan).
Collagens are synthesized as pro-collagens, most of which contain additional peptide sequences called “propeptides”. Propeptides are located at both the N- and C-terminal ends of the molecules. These propeptides serve to facilitate formation of the mature collagen's triple helical structure from pro-collagens within the endoplasmic reticulum. […]

GTM-3 = assay: Effect of TGF-β2 on HTM cell secretion of fibronectin and PAI-1; assay type: cell-based, human; details: 24 hours
Method: as §1
(§2) TABLE 1, shown below, summarizes the results of a study measuring the effect of TGF-β2 on ECM-related protein levels (fibronectin, PAI-1) in cultured TM cells of various strains. TGF-β2 was present in the cultures at a concentration of 5 ng/mL, and protein levels (mean±s.e.m.) were measured after 24 hours.

SGTM2697 = assay: as above; assay type: cell-based, human; details: 24 hours
Method: as §1, §2

NTM875-03 = assay: as above; assay type: cell-based, human; details: 24 hours
Method: as §1, §2

NTM974-03 = assay: as above; assay type: cell-based, human; details: 24 hours
Method: as §1, §2

NTM25-91 = assay: as above; assay type: cell-based, human; details: 24 hours
Method: as §1, §2

SGTM1233-99 = assay: as above; assay type: cell-based, human; details: 24 hours
Method: as §1, §2

GTM730-03 = assay: as above; assay type: cell-based, human; details: 24 hours
Method: as §1, §2

GTM686-03 = assay: as above; assay type: cell-based, human; details: 24 hours
Method: as §1, §2

NTM553-02 = assay: as above; assay type: cell-based, human; details: 24 hours
Method: as §1, §2

NTM35 = assay: as above; assay type: cell-based, human; details: 24 hours
Method: as §1, §2

GTM29-01 = assay: as above; assay type: cell-based, human; details: 24 hours
Method: as §1, §2

[4] = tested on: perfused human anterior segment model; assay: Perfused human anterior segment model, IOP (FIG. 1); details: TGF-β2 infused at 5 ng/mL
Method: FIG. 1 is a graph showing the effect of infused TGF-β2 on a perfused human anterior segment model. All donor eyes used in this model were used according to the provisions of the Declaration of Helsinki for research involving human tissue, and were used within 24 hours post-mortem. No donors were known to have a history of glaucoma or other ocular disorder.
Human ocular perfusion organ culture was performed as described in available literature. [Tschumper et al., Curr Eye Res., 1990; Vol. 9:363-369; Clark et al., Invest Ophthalmol Vis Sci., 1995; Vol. 36:478-489; Pang et al., J Glaucoma, 2000; Vol. 9:468-479; Pang et al., Invest Ophthalmol Vis Sci., 2003; Vol. 44:3502-3510]. Briefly, anterior segments were dissected and mounted into custom Plexiglas culture chambers, then perfused with serum-free Dulbecco's modified Eagle's medium. IOP was monitored every 5 seconds and averaged each hour. Perfused tissue was allowed to equilibrate at 37° C. and 5% CO2 until a stable baseline IOP was achieved, typically 2-4 days; tissues with unstable IOP were discarded. Stable tissues were then further perfused with media containing the test compound(s) as indicated and changes in IOP were recorded. Eluate samples were collected daily for ELISA analysis of fibronectin and PAI-1 content. Tissues were fixed and evaluated for viability/morphology by light and electron microscopy at termination of each study. […]

c1ccc(-c2cc(-c3cn[nH]c3-c3ccccn3)ccn2)cc1 [GW-6604]
IC50 (ALK5): ~0.14 µM | IC50 (TGF-β Type II receptors): 10 µM | IC50 (p38 MAPK): 9.5 µM

c1ccc(-c2n[nH]cc2-c2ccnc3ccccc23)nc1 [Compound 2]
Inhibition of TGF-β2-mediated increase in PAI-1 content in supernatants [1]: dose-dependent inhibition | Inhibition of TGF-β2-mediated increase in fibronectin content in supernatants [1]: dose-dependent inhibition

NC(=O)c1ccc(-c2nc(-c3ccc4c(c3)OCO4)c(-c3ccccn3)[nH]2)cc1 [Compound 1]
Inhibition of TGF-β2-mediated increase in PAI-1 content in supernatants [1]: dose-dependent inhibition | Inhibition of TGF-β2-mediated increase in fibronectin content in supernatants [1]: dose-dependent inhibition | TGF-β2-mediated increase in perfusate fibronectin content [2]: completely antagonized | TGF-β2-dependent PIP elevation ([3]; cultures treated with both TGF-β2 and compound): eliminated

B1: TGF-β2: transforming growth factor-beta isoform 2, a cytokine acting on ALK5 (Type 1 TGF-β receptor) (protein, UniProt P61812 303-414, looked up)
Transforming growth factor …: ALDAAYCFRNVQDNCCLRPLYIDFKRDLGWKWIHEPKGYNANFCAGACPYLWSSDTQHSRVLSLYNTINPEASASPCCVSQDLEPLTILYYIGKTPKIEQLSNMIVKSCKCS
Fibronectin Fold Increase (GTM-3; TGF-β2 5 ng/mL vs control): 5.4 | PAI-1 Fold Increase (GTM-3; TGF-β2 5 ng/mL vs control): 19.4 | Fibronectin (GTM-3; TGF-β2 5 ng/mL, mean±s.e.m.): 16.7 ± 1^ μg/well | PAI-1 (GTM-3; TGF-β2 5 ng/mL, mean±s.e.m.): 266 ± 8 ng/well | Fibronectin Fold Increase (SGTM2697; TGF-β2 5 ng/mL vs control): 2.4 | Fibronectin (SGTM2697; TGF-β2 5 ng/mL, mean±s.e.m.): 19.5 ± 2^ μg/well | Fibronectin Fold Increase (NTM875-03; TGF-β2 5 ng/mL vs control): 19.2 | PAI-1 Fold Increase (NTM875-03; TGF-β2 5 ng/mL vs control): 2.6 | Fibronectin (NTM875-03; TGF-β2 5 ng/mL, mean±s.e.m.): 9.6 ± 3.8 μg/well | PAI-1 (NTM875-03; TGF-β2 5 ng/mL, mean±s.e.m.): 282.6 ± 11.6 ng/well | Fibronectin Fold Increase (NTM974-03; TGF-β2 5 ng/mL vs control): 2.3 | PAI-1 Fold Increase (NTM974-03; TGF-β2 5 ng/mL vs control): 2.8 | Fibronectin (NTM974-03; TGF-β2 5 ng/mL, mean±s.e.m.): 8.9 ± 1.5 μg/well | PAI-1 (NTM974-03; TGF-β2 5 ng/mL, mean±s.e.m.): 297.7 ± 23.1 ng/well | Fibronectin Fold Increase (NTM25-91; TGF-β2 5 ng/mL vs control): 6.2 | Fibronectin (NTM25-91; TGF-β2 5 ng/mL, mean±s.e.m.): 19.3 ± 1.5 μg/well | Fibronectin Fold Increase (SGTM1233-99; TGF-β2 5 ng/mL vs control): 3.1 | PAI-1 Fold Increase (SGTM1233-99; TGF-β2 5 ng/mL vs control): 2.9 | Fibronectin (SGTM1233-99; TGF-β2 5 ng/mL, mean±s.e.m.): 12.2 ± 2.1 μg/well | PAI-1 (SGTM1233-99; TGF-β2 5 ng/mL, mean±s.e.m.): 256.5 ± 35.4 ng/well | Fibronectin Fold Increase (GTM730-03; TGF-β2 5 ng/mL vs control): 32.8 | PAI-1 Fold Increase (GTM730-03; TGF-β2 5 ng/mL vs control): 2.2 | Fibronectin (GTM730-03; TGF-β2 5 ng/mL, mean±s.e.m.): 26.2 ± 1.6 μg/well | PAI-1 (GTM730-03; TGF-β2 5 ng/mL, mean±s.e.m.): 268.8 ± 3.9 ng/well | Fibronectin Fold Increase (GTM686-03; TGF-β2 5 ng/mL vs control): 126 | PAI-1 Fold Increase (GTM686-03; TGF-β2 5 ng/mL vs control): 2.5 | Fibronectin (GTM686-03; TGF-β2 5 ng/mL, mean±s.e.m.): 25.2 ± 9.6 μg/well | PAI-1 (GTM686-03; TGF-β2 5 ng/mL, mean±s.e.m.): 258.3 ± 28.1 ng/well | Fibronectin Fold Increase (NTM553-02; TGF-β2 5 ng/mL vs control): 6.7 | PAI-1 Fold Increase (NTM553-02; TGF-β2 5 ng/mL vs control): 2.5 | Fibronectin (NTM553-02; TGF-β2 5 ng/mL, mean±s.e.m.): 10.1 ± 1.1 μg/well | PAI-1 (NTM553-02; TGF-β2 5 ng/mL, mean±s.e.m.): 315.9 ± 9.5 ng/well | Fibronectin Fold Increase (NTM35; TGF-β2 5 ng/mL vs control): 4.1 | Fibronectin (NTM35; TGF-β2 5 ng/mL, mean±s.e.m.): 13 ± 2.7 μg/well | Fibronectin Fold Increase (GTM29-01; TGF-β2 5 ng/mL vs control): 9.4 | PAI-1 Fold Increase (GTM29-01; TGF-β2 5 ng/mL vs control): 3.9 | Fibronectin (GTM29-01; TGF-β2 5 ng/mL, mean±s.e.m.): 9.4 ± 2.6 μg/well | PAI-1 (GTM29-01; TGF-β2 5 ng/mL, mean±s.e.m.): 260.5 ± 13.6 ng/well | IOP relative to control ([4]; after 72 hours): almost double | IOP compared to control ([4]; within 24 hours): elevated IOP | PIP levels compared to vehicle ([3]; TGF-β2-treated cultures, both study replicates): greatly elevated
